Source: patent publication US11278600B2, “Human alpha-galactosidase variants” (Codexis, Inc., priority 2014, dated 2022)

Experiments:
Format in all cases: biochemical
[1] = HTP-analysis of supernatants pretreated with base (MUGal hydrolysis); details: challenge at pH 7.6; activity of the variant/activity of Rd2BB (SEQ ID NO: 10); yeast supernatant
In short: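 Fluorescence of released 4-MU (Ex 355 nm, Em 448 nm) after carbonate quench reports MUGal hydrolysis by GLA variants secreted from INVSc1 yeast. Before the acidic (pH 4.3-4.8) 30-180 min reaction at 37° C, supernatants had been pre-incubated at pH 7.0-9.7 for 1-18 h at 37° C.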

[2] = HTP-analysis of supernatants pretreated with acid (MUGal hydrolysis); details: challenge at pH 4.2; activity of the variant/activity of Rd2BB (SEQ ID NO: 10); yeast supernatant
In short: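 Fluorescence of MUGal hydrolysis (Ex. 355 nm, Em. 448 nm) is read after sodium carbonate quench. The enzyme source is INVSc1 yeast culture supernatant, first exposed to pH 3.3-4.3 McIlvaine buffer at 37° C. for 1-3 h, then reacted at pH 4.8 for 30-180 minutes.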

[3] = HTP-analysis of yeast culture supernatants, no challenge (MUGal hydrolysis); details: activity of the variant/activity of Rd2BB (SEQ ID NO: 10), yeast supernatant
In short: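 GLA variants were expressed in INVSc1 yeast grown in SD-Ura broth with glucose at 30° C., and culture supernatants were collected after 66-84 h. Supernatant was mixed with McIlvaine buffer pH 4.8 and MUGal (2 mM stock) in 50 mM citrate, 200 mM KCl, pH 4.6, incubated at 37° C. for 30-180 minutes, then quenched with sodium carbonate.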

B1: 205 (protein)
chain: LDNGLARTPTMGWLHWERFMCNLDCQEEPDSCISEKLFMEMAELMVSEGWKDAGYEYLCIDDCWMAPQRDSEGRLQADPQRFPHGIRQLANYVHSKGLKLGIYADVGNKTCAGFPGSFGYYDIDAQTFADWGVDLLKFDGCYCDSLENLADGYKHMSLALNRTGRSIVYSCEWPLYMWPFQKPNYTEIRQYCNHWRNFADIDDSWASIKSILDWTSFNQERIVDVAGPGGWNDPDMLVIGNFGLSWNQQVTQMALWAIMAAPLFMSNDLRHISPQAKALLQDKDVIAINQDPLGKQGYQLRQGDNFEVWERPLSGLAWAVAMINRQEIGGPRSYTIAVASLGKGVACNPACFITQLLPVKRKLGFYDWDSRLRSHINPTGTVLLQLENTMQMSLKDLL
modifications: Synthetic Polypeptide sequence of Variant No. 205
[1]
  Relative Activity of GLA Variants After Challenge at pH 7.6: ++ (++ = 1.5 to 2.5 relative activity over Rd2BB (SEQ ID NO: 10))
[2]
  Relative Activity of GLA Variants After Challenge at pH 4.2: ++ (++ = 1.5 to 2.5 relative activity over Rd2BB (SEQ ID NO: 10))
[3]
  Relative Activity of GLA Variants After No Challenge (NC): ++ (++ = 1.5 to 2.5 relative activity over Rd2BB (SEQ ID NO: 10))

B2: 206 (protein)
chain: LDNGLARTPTMGWLHWERFMCNLDCQEEPDSCISEKLFMEMAELMVSEGWKDAGYEYLCIDDCWMAPQRDSEGRLQADPQRFPHGIRQLANYVHSKGLKLGIYADVGNKTCAGFPGSFGYYDIDAQTFADWGVDLLKFDGCYCDSLENLADGYKHMSLALNRTGRSIVYSCEWPLYMWPFQKPNYTEIRQYCNHWRNFADIDDSWASIKSILDWTSFNQERIVDVAGPGGWNDPDMLVIGNFGLSWNQQVTQMALWAIMAAPLFMSNDLRHISPQAKALLQDKDVIAINQDPLGKQGYQLRQGDNFEVWERPLSGLAWAVAMINRQEIGGPRSYTIAVASLGKGVACNPACFITQLLPVKRKLGFYNWTSRLRSHINPTGTVLLQLENTMQMSLKDLL
modifications: Synthetic Polypeptide sequence of Variant No. 206
[1]
  Relative Activity of GLA Variants After Challenge at pH 7.6: +++ (+++ = >2.5 relative activity over Rd2BB (SEQ ID NO: 10))
[2]
  Relative Activity of GLA Variants After Challenge at pH 4.2: +++ (+++ = >2.5 relative activity over Rd2BB (SEQ ID NO: 10))
[3]
  Relative Activity of GLA Variants After No Challenge (NC): +++ (+++ = >2.5 relative activity over Rd2BB (SEQ ID NO: 10))

B3: 207 (protein)
chain: LDNGLARTPTMGWLHWERFMCNLDCQEEPDSCISEKLFMEMAELMVSEGWKDAGYEYLCIDDCWMAPQRDSEGRLQADPQRFPHGIRQLANYVHSKGLKLGIYADVGNKTCAGFPGSFGYYDIDAQTFADWGVDLLKFDGCYCDSLENLADGYKHMSLALNRTGRSIVYSCEWPLYMWPFQKPNYTEIRQYCNHWRNFADIDDSWASIKSILDWTSFNQERIVDVAGPGGWNDPDMLVIGNFGLSWNQQVTQMALWAIMAAPLFMSNDLRHISPQAKALLQDKDVIAINQDPLGKQGYQLRQGDNFEVWERPLSGLAWAVAMINRQEIGGPRSYTIAVASLGKGVACNPACFITQLLPVKRKLGFYNWTSRLKSHINPTGTVLLQLENTMQMSKDLLL
modifications: Synthetic Polypeptide sequence of Variant No. 207 of mature Human GLA
[1]
  Relative Activity of GLA Variants After Challenge at pH 7.6: +++ (+++ = >2.5 relative activity over Rd2BB (SEQ ID NO: 10))
[2]
  Relative Activity of GLA Variants After Challenge at pH 4.2: +++ (+++ = >2.5 relative activity over Rd2BB (SEQ ID NO: 10))
[3]
  Relative Activity of GLA Variants After No Challenge (NC): ++ (++ = 1.5 to 2.5 relative activity over Rd2BB (SEQ ID NO: 10))

B4: 208 (protein)
chain: LDNGLARTPTMGWLHWERFMCNLDCQEEPDSCISEKLFMEMAELMVSEGWKDAGYEYLCIDDCWMAPQRDSEGRLQADPQRFPHGIRQLANYVHSKGLKLGIYADVGNKTCAGFPGSFGYYDIDAQTFADWGVDLLKFDGCYCDSLENLADGYKHMSLALNRTGRSIVYSCEWPLYMWPFQKPNYTEIRQYCNHWRNFADIDDSWASIKSILDWTSFNQERIVDVAGPGGWNDPDMLVIGNFGLSWNQQVTQMALWAIMAAPLFMSNDLRHISPQAKALLQDKDVIAINQDPLGKQGYQLRQGDNFEVWERPLSGLAWAVAMINRQEIGGPRSYTIAVASLGKGVACNPACFITQLLPVKRKLGFYNWTSRLKSHVNPTGTVLLQLENTMQMSKDLLL
modifications: Synthetic Polypeptide sequence of Variant No. 208 of mature Human GLA
[1]
  Relative Activity of GLA Variants After Challenge at pH 7.6: +++ (+++ = >2.5 relative activity over Rd2BB (SEQ ID NO: 10))
[2]
  Relative Activity of GLA Variants After Challenge at pH 4.2: +++ (+++ = >2.5 relative activity over Rd2BB (SEQ ID NO: 10))
[3]
  Relative Activity of GLA Variants After No Challenge (NC): ++ (++ = 1.5 to 2.5 relative activity over Rd2BB (SEQ ID NO: 10))

B5: 209 (protein)
chain: LDNGLARTPTMGWLHWERFMCNLDCQEEPDSCISEKLFMEMAELMVSEGWKDAGYEYLCIDDCWMAPQRDSEGRLQADPQRFPHGIRQLANYVHSKGLKLGIYADVGNKTCAGFPGSFGYYDIDAQTFADWGVDLLKFDGCYCDSLENLADGYKHMSLALNRTGRSIVYSCEWPLYMWPFQKPNYTEIRQYCNHWRNFADIDDSWASIKSILDWTSFNQERIVDVAGPGGWNDPDMLVIGNFGLSWNQQVTQMALWAIMAAPLFMSNDLRHISPQAKALLQDKDVIAINQDPLGKQGYQLRQGDNFEVWERPLSGLAWAVAMINRQEIGGPRSYTIAVASLGKGVACNPACFITQLLPVKRKLGFYPWDSRLRSHINPTGTVLLQLENTMQMSKDLLL
modifications: Synthetic Polypeptide sequence of Variant No. 209 of mature Human GLA
[1]
  Relative Activity of GLA Variants After Challenge at pH 7.6: + (+ = 0.5 to 1.5 relative activity over Rd2BB (SEQ ID NO: 10))
[2]
  Relative Activity of GLA Variants After Challenge at pH 4.2: + (+ = 0.5 to 1.5 relative activity over Rd2BB (SEQ ID NO: 10))
[3]
  Relative Activity of GLA Variants After No Challenge (NC): + (+ = 0.5 to 1.5 relative activity over Rd2BB (SEQ ID NO: 10))

B6: 210 (protein)
chain: LDNGLARTPTMGWLHWERFMCNLDCQEEPDSCISEKLFMEMAELMVSEGWKDAGYEYLCIDDCWMAPQRDSEGRLQADPQRFPHGIRQLANYVHSKGLKLGIYADVGNKTCAGFPGSFGYYDIDAQTFADWGVDLLKFDGCYCDSLENLADGYKHMSLALNRTGRSIVYSCEWPLYMWPFQKPNYTEIRQYCNHWRNFADIDDSWASIKSILDWTSFNQERIVDVAGPGGWNDPDMLVIGNFGLSWNQQVTQMALWAIMAAPLFMSNDLRHISPQAKALLQDKDVIAINQDPLGKQGYQLRQGDNFEVWERPLSGLAWAVAMINRQEIGGPRSYTIAVASLGKGVACNPACFITQLLPVKRKLGLYNWTSRLRSHINPTGTVLLQLENTMQMSKDLLL
modifications: Synthetic Polypeptide sequence of Variant No. 210 of mature Human GLA
[1]
  Relative Activity of GLA Variants After Challenge at pH 7.6: ++ (++ = 1.5 to 2.5 relative activity over Rd2BB (SEQ ID NO: 10))
[2]
  Relative Activity of GLA Variants After Challenge at pH 4.2: ++ (++ = 1.5 to 2.5 relative activity over Rd2BB (SEQ ID NO: 10))
[3]
  Relative Activity of GLA Variants After No Challenge (NC): ++ (++ = 1.5 to 2.5 relative activity over Rd2BB (SEQ ID NO: 10))

B7: 211 (protein)
chain: LDNGLARTPTMGWLHWERFMCNLDCQEEPDSCISEKLFMEMAELMVSEGWKDAGYEYLCIDDCWMAPQRDSEGRLQADPQRFPHGIRQLANYVHSKGLKLGIYADVGNKTCAGFPGSFGYYDIDAQTFADWGVDLLKFDGCYCDSLENLADGYKHMSLALNRTGRSIVYSCEWPLYMWPFQKPNYTEIRQYCNHWRNFADIDDSWASIKSILDWTSFNQERIVDVAGPGGWNDPDMLVIGNFGLSWNQQVTQMALWAIMAAPLFMSNDLRHISPQAKALLQDKDVIAINQDPLGKQGYQLRQGDNFEVWERPLSGLAWAVAMINRQEIGGPRSYTIAVASLGKGVACNPACFITQLLPVKRKLGLYNWTSRLRSHVNPTGTVLLQLENTMQMSKDLLL
modifications: Synthetic Polypeptide sequence of Variant No. 211 of mature Human GLA
[1]
  Relative Activity of GLA Variants After Challenge at pH 7.6: ++ (++ = 1.5 to 2.5 relative activity over Rd2BB (SEQ ID NO: 10))
[2]
  Relative Activity of GLA Variants After Challenge at pH 4.2: ++ (++ = 1.5 to 2.5 relative activity over Rd2BB (SEQ ID NO: 10))
[3]
  Relative Activity of GLA Variants After No Challenge (NC): ++ (++ = 1.5 to 2.5 relative activity over Rd2BB (SEQ ID NO: 10))

B8: 212 (protein)
chain: LDNGLARTPTMGWLHWERFMCNLDCQEEPDSCISEKLFMEMAELMVSEGWKDAGYEYLCIDDCWMAPQRDSEGRLQADPQRFPHGIRQLANYVHSKGLKLGIYADVGNKTCAGFPGSFGYYDIDAQTFADWGVDLLKFDGCYCDSLENLADGYKHMSLALNRTGRSIVYSCEWPLYMWPFQKPNYTEIRQYCNHWRNFADIDDSWASIKSILDWTSFNQERIVDVAGPGGWNDPDMLVIGNFGLSWNQQVTQMALWAIMAAPLFMSNDLRHISPQAKALLQDKDVIAINQDPLGKQGYQLRQGDNFEVWERPLSGLAWAVAMINRQEIGGPRSYTIAVASLGKGVACNPACFITQLLPVKRKLGLYNWTSRLKSHVNPTGTVLLQLENTMQMSKDLLL
modifications: Synthetic Polypeptide sequence of Variant No. 212 of mature Human GLA
[1]
  Relative Activity of GLA Variants After Challenge at pH 7.6: ++ (++ = 1.5 to 2.5 relative activity over Rd2BB (SEQ ID NO: 10))
[2]
  Relative Activity of GLA Variants After Challenge at pH 4.2: ++ (++ = 1.5 to 2.5 relative activity over Rd2BB (SEQ ID NO: 10))
[3]
  Relative Activity of GLA Variants After No Challenge (NC): ++ (++ = 1.5 to 2.5 relative activity over Rd2BB (SEQ ID NO: 10))
